Experimental findings from patent publication US20140369940A1 (Biogen, published 2014) are described below.

Ends that are not written are not given here.

The target in test [1] is T1, recombinant human β-synuclein (wt) (human, UniProt Q16143 1-134).
T1 construct: also called wt β-synuclein
Briefly: direct ELISA.

Test [2] deals with T2, synthetic biotinylated α-synuclein peptide 5-30 (human, biotinylated (position not given)).
T2 construct: also called α-synuclein 5-30
The experiment in a line: in-solution ELISA, antibody coated at 2 µg/ml, biotinylated peptide.

The target in test [3] is T3, human α-synuclein pepscan peptide A02 (residues 5-20) (human, also: C-terminally coupled via flexible linker to cellulose membrane).
T3 construct: Printed as residues 5-20, although a 15-mer with 11 residues overlap to A01 would be 5-19
T3 peptide: MKGLSKAKEGVVAAAE
Briefly: pepscan, immunoblotting.
Experimental: A membrane that comprises a total of 33 peptides was rinsed in methanol and then blocked with Rotiblock (Roth, Karlsruhe, Germany). The membrane was incubated with indicated antibodies diluted in blocking solution and then with horse radish peroxidase (HRP)-labeled secondary antibody for 1 hr. Between incubations the membrane was washed 3× with PBS-T for 5 min. The membrane was then developed using ECL plus Western Blotting Detection Reagents (GE Healthcare).
Adjacent peptides share an overlap of 11 residues and peptides were C-terminally spotted to a cellulose support membrane.

The target in test [4] is recombinant α-synuclein truncation aa 1-60 (human, UniProt P37840 1-60). Briefly: direct ELISA. (An ELISA detects its analyte on a solid surface through an enzyme-linked reagent.)

T1 sequence (Q16143 whole entry): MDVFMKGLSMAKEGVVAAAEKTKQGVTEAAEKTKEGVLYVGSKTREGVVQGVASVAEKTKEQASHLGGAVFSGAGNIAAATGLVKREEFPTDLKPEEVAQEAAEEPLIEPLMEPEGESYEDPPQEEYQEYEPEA

B1: recombinant human monoclonal antibody NI-202.12F4 (antibody, V domains shown)
VH: EVQLVQSGGGLVEPGGSLRLSCAVSGFDFEKAWMSWVRQAPGQGLQWVARIKSTADGGTTSYAAPVEGRFIISRDDSRNMLYLQMNSLKTEDTAVYYCTSAHWGQGTLVTVSS
VL: QSVLTQPPSVSVSPGQTARITCSGEALPMQFAHWYQQRPGKAPVIVVYKDSERPSGVPERFSGSSSGTTATLTITGVQAEDEADYYCQSPDSTNTYEVFGGGTKLTVL
notes: Lambda light chain; HEK293 or CHO conditioned medium
B1: the binding result in test [1], in test [2] and in test [3] was “no binding” throughout.

B2: recombinant human monoclonal antibody NI-202.21D11 (antibody, V domains shown)
VH: EVQLVESGAEVKKPGASVKVSCKASGYTFTNYAMHWVRQAPGQRLEWMGWINAGNGKRKYSQKFQDRVTINRDTSASTIYMELSSLGSEDTAVYYCAREEDHAGSGSYLSMDVWGQGTLVTVSS
VL: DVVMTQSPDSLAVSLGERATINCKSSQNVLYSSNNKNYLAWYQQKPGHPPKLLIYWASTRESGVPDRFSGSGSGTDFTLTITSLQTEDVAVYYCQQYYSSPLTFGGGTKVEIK
notes: Expressed recombinantly in HEK293 or CHO cells as a complete antibody (methods: human IgG1 or chimeric mouse IgG2a constant regions); conditioned medium used directly unless otherwise stated
Turning to B2, in test [4], the binding result is given as “no binding (tested: coated at 2 ug/ml)”.
